Laboratory results taken from patent publication US20250171787, “APTAMERS, PHARMACEUTICAL COMPOSITIONS THEREOF, AND METHODS FOR PREVENTING OR TREATING BCMA-ASSOCIATED DISEASES OR CONDITIONS” (Aptapeutics Limited, published 2025).

B1: 10-12 (ssDNA)
DNA: TTGCTGTGCAGGAAGAATGCAGATTCCCAACATGGATCCGAGCTCCACGTG
B2: 10-1 (ssDNA)
DNA: CGTACGGTCGACGCTAGCTGTTGCTGTGCAGGAAG
B3: 10-10 (ssDNA)
DNA: ACGCTAGCTGTTGCTGTGCAGGAAGAATGCAGATTCCCAACATGGATCCGAGCTCCACGTG
B4: 10-11 (ssDNA)
DNA: AGCTGTTGCTGTGCAGGAAGAATGCAGATTCCCAACATGGATCCGAGCTCCACGTG
B5: 10-2 (ssDNA)
DNA: CGTACGGTCGACGCTAGCTGTTGCTGTGCAGGAAGAATGCA
B6: 10-6 (ssDNA)
DNA: CGTACGGTCGACGCTAGCTGTTGCTGTGCAGGAAGAATGCAGATTCCCAACATGGATCCGA
B7: Sample 10 (ssDNA)
DNA: CGTACGGTCGACGCTAGCTGTTGCTGTGCAGGAAGAATGCAGATTCCCAACATGGATCCGAGCTCCACGTG
B8: 10-8 (ssDNA)
DNA: TGTTGCTGTGCAGGAAGAATGCAGATTCCCAACAT
B9: 10-4 (ssDNA)
DNA: CGTACGGTCGACGCTAGCTGTTGCTGTGCAGGAAGAATGCAGATTCCCAAC
B10: 10-3 (ssDNA)
DNA: CGTACGGTCGACGCTAGCTGTTGCTGTGCAGGAAGAATGCAGATTC
B11: modified 10-3 (XNA)
DNA: B10 DNA
modifications: 2'-OMe on all cytosines; 3' inverted dT (terminal t in listing is the inverted dT)
B12: Sample 1 (ssDNA)
DNA: CGTACGGTCGACGCTAGCAAGTATAGACGTGATGCAGGGAATGCAGACCCAGGGGATCCGAGCTCCACGTG
B13: 10-7 (ssDNA)
DNA: CGTACGGTCGACGCTAGCTGTTGCTGTGCAGGAAGAATGCAGATTCCCAACATGGATCCGAGCTCC
B14: Sample 7 (ssDNA)
DNA: CGTACGGTCGACGCTAGCCCATGGGAATGCAGACCGCAGGCTGGCTGTAGGAGGGATCCGAGCTCCACGTG
B15: 10-9 (ssDNA)
DNA: GGTCGACGCTAGCTGTTGCTGTGCAGGAAGAATGCAGATTCCCAACATGGATCCGAGCTCCACGTG
B16: 10-5 (ssDNA)
DNA: CGTACGGTCGACGCTAGCTGTTGCTGTGCAGGAAGAATGCAGATTCCCAACATGGA

Experiments:
BCMA (TNFRSF17) [1] = target: T1, BCMA (TNFRSF17) (Homo sapiens, UniProt Q02223 Q02223:1-54); experiment: ELONA; details: tags: His-tag; label: 5'-biotin
T1 sequence (Q02223 1-54, one chain of several): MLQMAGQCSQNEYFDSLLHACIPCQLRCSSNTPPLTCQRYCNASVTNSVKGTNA
Protocol: (§1) ELONA was used to evaluate the binding affinity of the aptamers. 500 ng of His-tagged recombinant BCMA was used to coat each well of a 96-well microtiter plate via overnight incubation at 4° C. 1 hour of BSA blocking at room temperature was used to cover non-binding sites and was followed by 4 washes with DNA binding buffer for 5 minutes. Varying concentrations of each aptamer was added into each well for 45-minute incubation with gentle shaking. The wells were then washed with wash buffer 4 times, 5 minutes each. 100 μl of streptavidin-HRP (1:10000 in PBST+0.1% BSA) was added into each well for 30-minute incubation. 4 washes with binding buffer were then performed. 50 μl of TMB was added to each well for a 20-minute incubation. 50 μl of 2M H₂SO₄ was used to stop the reaction, followed by measurement of 450 nm absorbance.
(§2) Their binding affinity was evaluated via ELONA. Binding curves were plotted, followed by calculation of the binding affinity.

BCMA (TNFRSF17) [2] = target: T1, BCMA (TNFRSF17); experiment: ELONA; Kd determined but value only in FIG. 2; details: tags: His-tag; label: 5'-biotin
BCMA (TNFRSF17) [3] = target: T1, BCMA (TNFRSF17); experiment: ELONA; random region only; details: tags: His-tag; label: 5'-biotin
Protocol: as §1, §2

BCMA (TNFRSF17) [4] = target: T1, BCMA (TNFRSF17); experiment: ELONA; best of the truncations; details: tags: His-tag; label: 5'-biotin
Protocol: as §1, §2

BCMA (TNFRSF17) [5] = target: T1, BCMA (TNFRSF17); experiment: ELONA; details: tags: His-tag

Binder	Kd (BCMA (TNFRSF17) [1]) [nM]	other results
B1	542	–
B2	1290	–
B3	1550	–
B4	1590	–
B5	240	–
B6	364	–
B7	–	binding result (BCMA (TNFRSF17) [2]): binds
B8	–	Kd (BCMA (TNFRSF17) [3]): 184 nM
B9	130	–
B10	–	Kd (BCMA (TNFRSF17) [4]): 59 nM
B11	–	Kd (BCMA (TNFRSF17) [5]): ~64.2 nM
B12	–	binding result (BCMA (TNFRSF17) [2]): binds
B13	65	–
B14	–	binding result (BCMA (TNFRSF17) [2]): binds
B15	451	–
B16	579	–
